Laboratory results from US20200247894A1 (Regeneron, published 2020).

Legend:
[1] = target: T1, D1 domain of human IL-2Rγ extracellular domain expressed with a C-terminal myc-myc-hexahistidine tag (human); experiment: SPR, mAb captured on anti-hFc, 25 C
T1 construct: also called human IL2Rγ domain 1
T1 chain: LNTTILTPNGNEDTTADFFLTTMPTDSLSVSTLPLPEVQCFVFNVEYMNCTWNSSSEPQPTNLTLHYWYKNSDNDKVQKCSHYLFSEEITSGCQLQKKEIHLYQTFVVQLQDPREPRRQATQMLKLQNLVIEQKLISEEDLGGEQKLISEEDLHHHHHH
Procedure: (§1) Equilibrium dissociation constants (KD values) for IL-2Rγ binding to purified anti-IL2Rγ monoclonal antibodies were determined using a Biacore 4000 instrument equipped with a real-time surface plasmon resonance biosensor. All binding studies were performed in 10 mM HEPES, 150 mM NaCl, 3 mM EDTA, and 0.05% v/v Surfactant Tween-20, pH 7.4 (HBS-ET) running buffer at 25° C. and 37° C. The Biacore sensor surface was first derivatized by amine coupling with a monoclonal mouse anti-human Fc antibody (GE, # BR-1008-39) to capture anti-IL2Rγ monoclonal antibodies.
(§2) The dissociation of monoclonal antibody bound IL2Rγ reagents were monitored for 8-10 minutes in HBS-ET running buffer. Kinetic association (kₐ) and dissociation (kd) rate constants were determined by fitting the real-time sensorgrams to a 1:1 binding model using Scrubber 2.0c curve fitting software. Binding dissociation equilibrium constants (KD) and dissociative half-lives (t_{1/2}) were calculated from the kinetic rate constants as: […]

[2] = target: T2, D2 domain of human IL2Rγ extracellular domain expressed with a C-terminal myc-myc-hexahistidine tag (human); experiment: SPR, mAb captured on anti-hFc, 25 C
T2 construct: also called human IL2Rγ domain 2
T2 chain: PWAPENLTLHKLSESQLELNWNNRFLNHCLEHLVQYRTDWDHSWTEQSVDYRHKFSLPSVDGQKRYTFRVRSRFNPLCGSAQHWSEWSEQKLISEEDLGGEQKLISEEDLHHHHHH
Procedure: as §1

[3] = target: T1, D1 domain of human IL-2Rγ extracellular …; experiment: SPR, mAb captured on anti-hFc, 37 C
Procedure: as §1, §2

[4] = target: T2, D2 domain of human IL2Rγ extracellular …; experiment: SPR, mAb captured on anti-hFc, 37 C
Procedure: as §1

[5] = target: T3, human IL-2Rγ endogenously expressed on NK-92 and Jurkat cells (human, UniProt P31785 23-369); experiment: flow cytometry, 10 ug/ml antibody, NK-92 cells (endogenous human IL-2Rg)
T3 construct: whole, on cells; on cells it stands with the other receptor subunits of the cell line; also called IL-2Rg; CD132
T3 sequence (looked up): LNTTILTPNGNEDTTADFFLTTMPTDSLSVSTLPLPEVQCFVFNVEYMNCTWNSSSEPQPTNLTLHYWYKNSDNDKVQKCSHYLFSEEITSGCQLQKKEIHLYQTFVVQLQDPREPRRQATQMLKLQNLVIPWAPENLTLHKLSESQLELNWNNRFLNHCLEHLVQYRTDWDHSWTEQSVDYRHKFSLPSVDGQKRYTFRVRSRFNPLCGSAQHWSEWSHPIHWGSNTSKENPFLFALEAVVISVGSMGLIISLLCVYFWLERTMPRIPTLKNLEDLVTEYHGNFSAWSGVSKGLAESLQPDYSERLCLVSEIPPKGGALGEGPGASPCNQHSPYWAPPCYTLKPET
Procedure: (§3) For flow cytometry analyses, the cells were pre-incubated with mouse IgG at 100 μg/ml for 15 minutes at room temperature (RT) to block the binding of the antibodies to Fc receptors. […] Cells were washed, fixed using BD CytoFix™ (BD biosciences, #554655) and analyzed on an IQue® (Intellicyt®) Flow Cytometer or Accuri Flow cytometer (BD). […] The results were analyzed using ForeCyt® (IntelliCyt®) software to determine the geometric means of fluorescence (MFI) for viable cells. Binding ratios were calculated by normalizing the MFI of the test sample by the MFI of the unstained sample.

[6] = target: T4, mouse IL-2Rγ endogenously expressed on MC/9 cells (mouse, UniProt P34902 23-369); experiment: flow cytometry, 10 ug/ml antibody, MC/9 cells (endogenous mouse IL-2Rg)
T4 construct: whole, on cells
T4 sequence (looked up): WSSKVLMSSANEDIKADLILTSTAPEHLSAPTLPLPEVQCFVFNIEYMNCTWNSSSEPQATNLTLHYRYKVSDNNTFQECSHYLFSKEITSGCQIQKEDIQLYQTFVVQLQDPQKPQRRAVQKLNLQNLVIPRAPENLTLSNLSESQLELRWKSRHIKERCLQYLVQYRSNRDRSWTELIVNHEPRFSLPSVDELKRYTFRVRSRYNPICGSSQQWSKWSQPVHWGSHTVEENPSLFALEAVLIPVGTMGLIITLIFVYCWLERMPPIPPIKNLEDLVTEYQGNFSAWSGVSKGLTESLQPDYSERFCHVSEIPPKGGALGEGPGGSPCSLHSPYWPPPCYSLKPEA
Procedure: as §3

[7] = target: T3, human IL-2Rγ endogenously expressed on …; experiment: flow cytometry, 10 ug/ml antibody, Jurkat cells (endogenous human IL-2Rg)
Procedure: as §3

100 nM Ag Bound [1] [RU] | 100 nM Ag Bound [2] [RU] | 100 nM Ag Bound [3] [RU] | 100 nM Ag Bound [4] [RU] | binding result [1] | binding result [2] | further results | Binder
1 | 0 | 1 | -1 |  |  | binding result [3]: no binding (tested: 100 nM) | H4H12858P (antibody, human IgG4 S228P, kappa, V domains shown, human IgG4; also called REGN9433) VH: EVQLVESGGDLVQPGGSLRLSCTASGFIFRNYAMNWVRQAPGKGLEWLSGILGSNDNTYYVDSVKGRFTISRDNSRNTLYLQMNSLRAEDSAVYYCAKGDAGGFDYWGQGTLVTVSS VL: DVVMTQSPLSLPVILGQPASISCRSSQSLVSSDGNTYLNWFQQRPGQSPRRLIYKVSNRDSGVPDRFSGSGSGTDFTLKISRVEAEDVGAYYCMQGSYWPPTFGQGTKLEIKR
0 | -1 | 1 | 0 | no binding (tested: 100 nM) |  |  | H4H12899P (antibody, human IgG4 S228P, kappa, V domains shown, human IgG4) VH: QVQLVESGGDLVKPGGSLRLSCATSGFTFSDFYMTWIRQAPGKGLEWISYISNSGSIVKYADSVKGRFTISRDNAKNSLYLQMNSLRAEDTAIYYCARFYGDRWGQGTLVTVSS VL: DIQLTQSPSFLSASVGDRVTITCWASQGISTFLAWYQQKPGKAPKLLIYAASTLQSGVPSRFSGSGSGTDFTLTISSLQPEDFATYHCQQLNNYPWTFGQGTKVEIKR
0 | -1 | 2 | 1 | no binding (tested: 100 nM) |  |  | H4H12900P (antibody, human IgG4 S228P, kappa, V domains shown, human IgG4) VH: QVQLVESGGGLVKPGGSLRLSCEASGFTFNDFYMTWIRQAPGKGLEWIAYISKSGDKMRYADSVKGRFSTSRDNAKNSLSLQMNSLRAEDTAVYYCARFYGDIWGQGTLVTVSS VL: DIQLTQSPSFLSASVGDRVTITCWASQDISSFLVWYQQKPGKAPNLLIYAASALQSGVPSRFSGSGSGTEFTLTISSLQPEDFASYYCEQLNNYPWTFGQGTKVEIKR
1 | -1 | 0 | -1 | no binding (tested: 100 nM) |  |  | H4H12908P (antibody, human IgG4 S228P, kappa, V domains shown, human IgG4) VH: EVQLVESGGRLVQPGGSLRLSCEASGFTFSNYGMTWVRQAPGKGLEWVSVISGSDNRKYYAESVKGRFTISRDNSKNTLYLQMNSLRAEDTAVYYCAKLGYSRSSKDFYYGMDVWGQGTTVTVSS VL: not shown
1 | 1 | -1 | 0 |  | no binding (tested: 100 nM) |  | H4H12924P2 (antibody, human IgG4 S228P, kappa, V domains shown, human IgG4) VH: EVQLVESGGGLVQPGRSLRLSCAASGFTLEDYAMHWVRQAPGKGLEWVSGISWNRGSTGYADSVKGRFTISRDNAKNSLYLQMTSLRAEDTALYYCAKGFYSMDVWGQGTTVTVSS VL: not shown
2 | 6 | 2 | 6 | no binding (tested: 100 nM) | no binding (tested: 100 nM) |  | H4H13538P (antibody, human IgG4 S228P, kappa, V domains shown, human IgG4) VH: EVQLVESGGGLVQPGGSLGLSCAASGFTFSNYAMSWVRQAPGKGLEWVSAVSGGGGGTYYADSVKGRFTISRDNSKNTVLLQMNSLRAEDTAVYYCARGRTGGLDYWGPGTLVTVSS VL: DVVMTQSPLSLPVIFGQPASISCRSSQSLVDSDGNTYLNWLQQRPGQSPRRLIYEVSNRDSGVPDRFSGSGSGTDFTLTISRVEAEDVGIYYCMQGTRWPPTFGGGTKVEIKR
2 | 10 | 2 | 7 | no binding (tested: 100 nM) | no binding (tested: 100 nM) |  | H4H13541P (antibody, human IgG4 S228P, kappa, V domains shown, human IgG4) VH: EVQLVESGGGVVRPGGSLRLSCAASGFIFDDYDMSWVRQPPGRGLEWVSGIDWFGGTRGYADSMKGRFTISRDNAKNSLYLQMNSLRVEDTAFYYCARGGAIVGAVTPFDYWGQGTLVTVSS VL: DIQMTQSPSSLSASVGNRVTLSCRASQSINTYLSWYQQRPGKAPKLLIYAASSLQSGVPSRFSGSGAGTDFTLTISSLQPEDFATYYCQQSYSAPLTFGGGTKVEIKR
24 | 5 | 22 | 4 |  | no binding (tested: 100 nM) | Kd [1]: 57.8 nM; koff [1]: 0.00207 s⁻¹; kon [1]: 35800 M⁻¹ s⁻¹; t½ [1]: 6 min; Kd [3]: 225 nM; koff [3]: 0.0105 s⁻¹; kon [3]: 46400 M⁻¹ s⁻¹; t½ [3]: 1.1 min | H4H13544P2 (antibody, human IgG4 S228P, kappa, V domains shown, human IgG4) VH: QLQLQESGPGLVKPSETLSLTCTVSGGSISIKNYYWGWIRQPPGKGLEWIGSIYYSGTTYYNPSLKSRVTISVDTSKNQFSLKLSSVTAADTAVYHCARHGYSYGHGWFDPWGQGTLVTVSS VL: not shown
8 | 5 | 4 | 3 | no binding (tested: 100 nM) | no binding (tested: 100 nM) |  | H4H13545P2 (antibody, human IgG4 S228P, kappa, V domains shown, human IgG4) VH: QVQLQQSGPGLVKPSQTLSLTCDISGDSVSSNIATWNWIRQSPSRGLEWLGRTYYRSKWYKDYAVSVKSRITINPDTSKNQFSLQVNSVTPEDTAVYYCARMTGPRYYFEYWGQGTLVTVSS VL: not shown
 |  |  |  |  |  | Binding Ratio (Sample over unstained MFIs) [5]: 84; Raw MFI [5]: 12500 MFI; Binding Ratio (Sample over unstained MFIs) [6]: 1; Raw MFI [6]: 187 MFI; Binding Ratio (Sample over unstained MFIs) [7]: 18; Raw MFI [7]: 1570 MFI | H4H12922P2 (antibody, human IgG4 S228P, kappa, V domains shown, fully human anti-IL2Rg antibody, human IgG4; also called REGN7256) VH: QVQLVESGGGVVKPGGSLRLSCAASGFTFSNSGIHWVRQAPGKGLEWVALISYAGSNKYYADSVKGRFTISRDNSKNTLSLQMNSLRAEDTAVYYCAKEVWTGTYDSFDMWGRGTMVTVSS VL: not shown
 |  |  |  |  |  | Binding Ratio (Sample over unstained MFIs) [5]: 2; Raw MFI [5]: 231 MFI; Binding Ratio (Sample over unstained MFIs) [6]: 1; Raw MFI [6]: 192 MFI; Binding Ratio (Sample over unstained MFIs) [7]: 1; Raw MFI [7]: 104 MFI | H4H12924P2 (antibody, human IgG4 S228P, kappa, V domains shown, fully human anti-IL2Rg antibody, human IgG4) VH: EVQLVESGGGLVQPGRSLRLSCAASGFTLEDYAMHWVRQAPGKGLEWVSGISWNRGSTGYADSVKGRFTISRDNAKNSLYLQMTSLRAEDTALYYCAKGFYSMDVWGQGTTVTVSS VL: not shown
 |  |  |  |  |  | Binding Ratio (Sample over unstained MFIs) [5]: 12; Raw MFI [5]: 1850 MFI; Binding Ratio (Sample over unstained MFIs) [6]: 1; Raw MFI [6]: 175 MFI; Binding Ratio (Sample over unstained MFIs) [7]: 2; Raw MFI [7]: 179 MFI | H4H12926P2 (antibody, human IgG4 S228P, kappa, V domains shown, fully human anti-IL2Rg antibody, human IgG4) VH: QVQLQQSGPGLVKPSQTLSLTCAISGDSVSSNIAAWNWIRLSPSRGLEWLGRTFFRSTWFYDYSLSVKGRITINPDTSKNQFSLHLNSVTPEDAAVYYCARTGRRWSLDYWGQGTLVTVSS VL: not shown
